# T1: ECT2-376 (Arabidopsis thaliana, UniProt Q9LJE5 376-667)
# T1 sequence: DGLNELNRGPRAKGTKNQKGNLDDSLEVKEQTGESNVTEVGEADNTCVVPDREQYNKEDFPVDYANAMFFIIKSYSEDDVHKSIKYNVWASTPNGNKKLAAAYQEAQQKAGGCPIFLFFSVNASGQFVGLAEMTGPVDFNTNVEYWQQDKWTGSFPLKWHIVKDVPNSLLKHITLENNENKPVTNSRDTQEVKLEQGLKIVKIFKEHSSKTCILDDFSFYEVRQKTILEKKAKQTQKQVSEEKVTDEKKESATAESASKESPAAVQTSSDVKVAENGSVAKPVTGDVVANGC
# T2: ECT2-424 (His-SUMO) (Arabidopsis thaliana, UniProt Q9LJE5 424-610)
# T2 sequence: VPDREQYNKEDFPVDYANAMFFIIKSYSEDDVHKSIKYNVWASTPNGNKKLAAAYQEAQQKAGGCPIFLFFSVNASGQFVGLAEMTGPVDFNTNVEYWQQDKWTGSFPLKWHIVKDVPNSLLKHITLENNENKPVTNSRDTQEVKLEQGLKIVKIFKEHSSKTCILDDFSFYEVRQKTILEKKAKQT
# T3: ECT2-303 (Arabidopsis thaliana, UniProt Q9LJE5 303-667)
# T3 sequence: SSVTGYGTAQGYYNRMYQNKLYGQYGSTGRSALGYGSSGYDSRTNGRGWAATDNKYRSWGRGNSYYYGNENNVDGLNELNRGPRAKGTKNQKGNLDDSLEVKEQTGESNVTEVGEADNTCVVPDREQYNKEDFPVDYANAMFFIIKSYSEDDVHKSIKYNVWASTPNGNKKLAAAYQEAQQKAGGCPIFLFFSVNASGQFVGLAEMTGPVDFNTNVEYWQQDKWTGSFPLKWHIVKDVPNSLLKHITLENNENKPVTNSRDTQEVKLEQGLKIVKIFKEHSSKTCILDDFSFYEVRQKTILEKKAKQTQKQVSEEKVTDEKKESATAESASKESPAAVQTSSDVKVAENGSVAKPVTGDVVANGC
# T4: ECT2-108 (Arabidopsis thaliana, UniProt Q9LJE5 108-667)
# T4 sequence: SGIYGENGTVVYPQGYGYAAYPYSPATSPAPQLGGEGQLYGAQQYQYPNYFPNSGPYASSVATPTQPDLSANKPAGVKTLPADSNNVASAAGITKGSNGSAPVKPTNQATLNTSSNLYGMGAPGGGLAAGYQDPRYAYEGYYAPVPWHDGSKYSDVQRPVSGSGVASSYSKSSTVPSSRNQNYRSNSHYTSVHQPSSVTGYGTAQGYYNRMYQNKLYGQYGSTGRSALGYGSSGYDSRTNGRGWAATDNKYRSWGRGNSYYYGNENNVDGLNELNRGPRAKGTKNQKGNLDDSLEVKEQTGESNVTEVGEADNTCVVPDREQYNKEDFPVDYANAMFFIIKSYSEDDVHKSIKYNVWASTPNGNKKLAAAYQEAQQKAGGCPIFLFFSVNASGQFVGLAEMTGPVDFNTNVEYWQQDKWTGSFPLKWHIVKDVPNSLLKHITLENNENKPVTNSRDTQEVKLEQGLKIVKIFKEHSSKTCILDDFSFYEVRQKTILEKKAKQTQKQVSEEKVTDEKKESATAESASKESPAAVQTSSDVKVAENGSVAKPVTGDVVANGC
# T5: ECT2-Fl (untagged) (Arabidopsis thaliana, UniProt Q9LJE5 1-667)
# T5 sequence: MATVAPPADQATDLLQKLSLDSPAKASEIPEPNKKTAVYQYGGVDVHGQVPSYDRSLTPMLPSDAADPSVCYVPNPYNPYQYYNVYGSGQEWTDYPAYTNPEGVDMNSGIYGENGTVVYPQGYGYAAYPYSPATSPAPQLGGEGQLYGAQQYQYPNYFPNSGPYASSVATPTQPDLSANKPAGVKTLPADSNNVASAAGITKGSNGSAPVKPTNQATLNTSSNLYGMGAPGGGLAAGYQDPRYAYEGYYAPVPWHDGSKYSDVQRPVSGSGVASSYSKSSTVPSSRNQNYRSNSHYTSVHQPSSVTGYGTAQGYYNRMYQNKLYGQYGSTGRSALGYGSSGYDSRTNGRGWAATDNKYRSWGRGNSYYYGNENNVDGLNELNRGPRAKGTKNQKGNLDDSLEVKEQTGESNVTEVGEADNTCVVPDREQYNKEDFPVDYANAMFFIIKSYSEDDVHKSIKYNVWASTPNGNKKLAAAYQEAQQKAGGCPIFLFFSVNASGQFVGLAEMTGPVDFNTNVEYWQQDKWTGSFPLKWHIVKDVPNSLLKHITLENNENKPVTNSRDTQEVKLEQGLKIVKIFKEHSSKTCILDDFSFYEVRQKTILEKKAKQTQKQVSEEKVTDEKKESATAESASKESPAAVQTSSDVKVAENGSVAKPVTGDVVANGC
# T6: ECT2-444 (Arabidopsis thaliana, UniProt Q9LJE5 444-580)
# T6 sequence: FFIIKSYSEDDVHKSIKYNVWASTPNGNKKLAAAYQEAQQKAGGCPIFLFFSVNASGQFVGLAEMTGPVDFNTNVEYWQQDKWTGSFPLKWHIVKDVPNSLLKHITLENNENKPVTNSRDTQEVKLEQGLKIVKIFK
# T7: ECT2-204 (Arabidopsis thaliana, UniProt Q9LJE5 204-667)
# T7 sequence: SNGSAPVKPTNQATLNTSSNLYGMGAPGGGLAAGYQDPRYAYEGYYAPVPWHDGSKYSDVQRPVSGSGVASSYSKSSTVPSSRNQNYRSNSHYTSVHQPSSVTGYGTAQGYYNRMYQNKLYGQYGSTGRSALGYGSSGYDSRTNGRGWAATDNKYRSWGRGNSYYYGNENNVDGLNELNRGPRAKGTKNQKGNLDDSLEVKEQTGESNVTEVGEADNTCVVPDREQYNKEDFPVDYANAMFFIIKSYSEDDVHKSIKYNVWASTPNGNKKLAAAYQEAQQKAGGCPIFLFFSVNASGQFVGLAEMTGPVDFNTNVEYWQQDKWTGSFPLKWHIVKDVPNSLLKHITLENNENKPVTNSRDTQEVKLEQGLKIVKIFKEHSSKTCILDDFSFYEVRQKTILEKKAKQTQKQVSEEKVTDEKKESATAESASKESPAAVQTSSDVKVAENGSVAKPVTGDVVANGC
# Experiments:
# ECT2-376 = molecular target: T1, ECT2-376; experiment: EMSA; no stable complex; EMSA: 10 nM FAM-RNA; binding buffer 10 mM HEPES pH 8.0, 50 mM KCl, 1 mM EDTA, 0.05% Triton X-100, 5% glycerol, 10 µg/mL salmon DNA, 1 mM DTT, 40 U/mL RNasin; 20 min on ice; native 8% acrylamide TBE gel at 4°C; settings: protein: recombinant; tags: N-terminal His-SUMO; label: 5' FAM
# ECT2-424 (His-SUMO) = molecular target: T2, ECT2-424 (His-SUMO); experiment: as above; settings: protein: recombinant; tags: N-terminal His-SUMO; label: 5' FAM
# ECT2-303 [1] = molecular target: T3, ECT2-303; experiment: EMSA; up to 500 nM; EMSA: 10 nM FAM-RNA; binding buffer 10 mM HEPES pH 8.0, 50 mM KCl, 1 mM EDTA, 0.05% Triton X-100, 5% glycerol, 10 µg/mL salmon DNA, 1 mM DTT, 40 U/mL RNasin; 20 min on ice; native 8% acrylamide TBE gel at 4°C; settings: protein: recombinant; tags: N-terminal His-SUMO; label: 5' FAM
# ECT2-303 [2] = molecular target: T3, ECT2-303; experiment: EMSA; apparent Kd from free probe; EMSA: 10 nM FAM-RNA; binding buffer 10 mM HEPES pH 8.0, 50 mM KCl, 1 mM EDTA, 0.05% Triton X-100, 5% glycerol, 10 µg/mL salmon DNA, 1 mM DTT, 40 U/mL RNasin; 20 min on ice; native 8% acrylamide TBE gel at 4°C; settings: protein: recombinant; tags: N-terminal His-SUMO; label: 5' FAM
# ECT2-108 [3] = molecular target: T4, ECT2-108; experiment: EMSA; up to 500 nM; EMSA: 10 nM FAM-RNA; binding buffer 10 mM HEPES pH 8.0, 50 mM KCl, 1 mM EDTA, 0.05% Triton X-100, 5% glycerol, 10 µg/mL salmon DNA, 1 mM DTT, 40 U/mL RNasin; 20 min on ice; native 8% acrylamide TBE gel at 4°C; settings: protein: recombinant; tags: N-terminal His-SUMO; label: 5' FAM
# ECT2-Fl (untagged) = molecular target: T5, ECT2-Fl (untagged); experiment: as above; settings: protein: recombinant; tags: none (His-SUMO cleaved by TEV); label: 5' FAM
# ECT2-108 [4] = molecular target: T4, ECT2-108; experiment: EMSA; affinity similar to ECT2-204; EMSA: 10 nM FAM-RNA; binding buffer 10 mM HEPES pH 8.0, 50 mM KCl, 1 mM EDTA, 0.05% Triton X-100, 5% glycerol, 10 µg/mL salmon DNA, 1 mM DTT, 40 U/mL RNasin; 20 min on ice; native 8% acrylamide TBE gel at 4°C; settings: protein: recombinant; tags: N-terminal His-SUMO; label: 5' FAM
# ECT2-444 = molecular target: T6, ECT2-444; experiment: EMSA; up to 800 nM; EMSA: 10 nM FAM-RNA; binding buffer 10 mM HEPES pH 8.0, 50 mM KCl, 1 mM EDTA, 0.05% Triton X-100, 5% glycerol, 10 µg/mL salmon DNA, 1 mM DTT, 40 U/mL RNasin; 20 min on ice; native 8% acrylamide TBE gel at 4°C; settings: protein: recombinant; tags: N-terminal His-SUMO; label: 5' FAM
# ECT2-204 = molecular target: T7, ECT2-204; experiment: EMSA; EMSA: 10 nM FAM-RNA; binding buffer 10 mM HEPES pH 8.0, 50 mM KCl, 1 mM EDTA, 0.05% Triton X-100, 5% glycerol, 10 µg/mL salmon DNA, 1 mM DTT, 40 U/mL RNasin; 20 min on ice; native 8% acrylamide TBE gel at 4°C; settings: protein: recombinant; tags: N-terminal His-SUMO; label: 5' FAM
# [5] = molecular target: YTHDC1 extended YTH (hDC1) (Homo sapiens, UniProt Q96MU7 345-507); experiment: EMSA; up to 400 nM; EMSA: 10 nM FAM-RNA; binding buffer 10 mM HEPES pH 8.0, 50 mM KCl, 1 mM EDTA, 0.05% Triton X-100, 5% glycerol, 10 µg/mL salmon DNA, 1 mM DTT, 40 U/mL RNasin; 20
Binder,binding result (ECT2-376),binding result (ECT2-424 (His-SUMO)),binding result (ECT2-303 [1]),Kd (ECT2-303 [2]),other results
"AAGGGCCGAACAACAGCAAAAAGGACUGCAAAAGGGGCAAGA (ssRNA, thiol-protected 3' bases (*G*A)) [Probe III (A)]",no binding,no binding,no binding,,
"AAGGGCCGAACAACAGCAAAAAGGACUGCAAAAGGGGCAAGA (ssRNA, m6A at position 25; thiol-protected 3' bases (*G*A)) [Probe III m6A]",,,,39 ± 2 nM,
"AUGUGUCUUUCAUGUACUAAAAGGACUGCUCUUGUGUCUUGU (ssRNA, thiol-protected 3' bases (*G*U)) [Probe IV (A)]",no binding,no binding,,,
"AUGUGUCUUUCAUGUACUAAAAGGACUGCUCUUGUGUCUUGU (ssRNA, m6A at position 25; thiol-protected 3' bases (*G*U)) [Probe IV m6A]",,,,85 ± 5 nM,
"AUGGGCCGUUCAUCUGCUAAAAGGACUGCUUUUGGGGCUUGU (ssRNA, thiol-protected 3' bases (*G*U)) [Probe I (A)]",,,no binding,,binding result (ECT2-108 [3]): no binding; binding result (ECT2-Fl (untagged)): no binding
"AUGGGCCGUUCAUCUGCUAAAAGGACUGCUUUUGGGGCUUGU (ssRNA, m6A at position 25; thiol-protected 3' bases (*G*U)) [Probe I m6A]",,,,55 ± 7 nM,binding signal (ECT2-108 [4]): ~3 fold Kd vs ECT2-Fl; binding result (ECT2-444): no binding; binding signal (ECT2-204): ~5 fold Kd vs ECT2-303; binding result [5]: binds
